B1: S. cerevisiae Abp1 (full length; SH3 domain 535-592 mutated) / Hua2 (parent complex)
chain 1: MALEPIDYTTHSREIDAEYLKIVRGSDPDTTWLIISPNAKKEYEPESTGSSFHDFLQLFDETKVQYGLARVSPPGSDVEKIIIIGWCPDSAPLKTRASFAANFAAVANNLFKGYHVQVTARDEDDLDENELLMKISNAAGARYSIQTSSKQQGKASTPPVKKSFTPSKSPAPVSKKEPVKTPSPAPAAKISSRVNDNNDDDDWNEPELKERDFDQAPLKPNQSSYKPIGKIDLQKVIAEEKAKEDPRLVQKPTAAGSKIDPSSDIANLKNESKLKRDSEFNSFLGTTKPPSMTESSLKNDDDKVIKGFRNEKSPAQLWAERKAKQNSGNAETKAEAPKPEVPEDEPEGEPDVKDLKSKFEGLAASEKEEEEMENKFAPPPKKSEPTIISPKPFSKPQEPVKAEEAEQPKTDYKKIGNPLPGMHIEADNEEEPEENDDDWDDDEDEAAQPPLPSRNVASGAPVQKEEPEQEEIAPSLPSRNSIPAPKQEEAPEQAPEEEIEEEAEEAAPQLPSRSSAAPPPPPRRATPEKKPKENPWATAEYDYDAAEDNELTFVENDKIINIEFVDDDWWLGELEKDGSKGLFPSNYVSLGN
chain 2: MQQTKFGKMYLDHDSVVEYSEDEIVEADRITLGYKKRLSMIENQMRHLLEDFSLDVQQIEPILADLQKYYDAFLQLLQKRNKSLQCKRSTHQPVPSPMNSQTSTNAKVNLSGKLMKFQLNSVQKFDEENILRILQNKIEFEHYFQIDKGKKQKVLLLAVYQCLNGPTRLHKVLNIEGIIHNNSIRTILGKQVSSSKWTVFLYDVKLVLLAHRQDVPNLETSKMIVRYGDLFPCALYFKDHTAY

Variants of: B1
Assay: DHFR protein-fragment complementation in yeast (Abp1-DHFR F[1,2] x partner-DHFR F[3]), deep mutational scanning, second methotrexate selection vs reference; S. cerevisiae, DHFR-PCA selection in liquid with methotrexate at 30 C, two 72 h selections (the score uses the second); reference = the pre-selection culture

Variant | screen value
chain 1 A546F | -0.502 DMS score: mean over two replicates of log2(f_test/f_ref + 0.5)/ln 2, minus the synonymous-codon median (not a log2 …
chain 1 A546Q | 1.19 DMS score: mean over two replicates of log2(f_test/f_ref + 0.5)/ln 2, minus the synonymous-codon median (not a log2 …
chain 1 A546Y | -0.447 DMS score: mean over two replicates of log2(f_test/f_ref + 0.5)/ln 2, minus the synonymous-codon median (not a log2 …
chain 1 A546R | -1.4 DMS score: mean over two replicates of log2(f_test/f_ref + 0.5)/ln 2, minus the synonymous-codon median (not a log2 …
chain 1 D542F | -0.772 DMS score: mean over two replicates of log2(f_test/f_ref + 0.5)/ln 2, minus the synonymous-codon median (not a log2 …
chain 1 D542K | -0.627 DMS score: mean over two replicates of log2(f_test/f_ref + 0.5)/ln 2, minus the synonymous-codon median (not a log2 …
chain 1 D542N | 0.0633 DMS score: mean over two replicates of log2(f_test/f_ref + 0.5)/ln 2, minus the synonymous-codon median (not a log2 …
chain 1 D542H | -0.15 DMS score: mean over two replicates of log2(f_test/f_ref + 0.5)/ln 2, minus the synonymous-codon median (not a log2 …
chain 1 D542T | 0.719 DMS score: mean over two replicates of log2(f_test/f_ref + 0.5)/ln 2, minus the synonymous-codon median (not a log2 …
chain 1 D542R | -0.244 DMS score: mean over two replicates of log2(f_test/f_ref + 0.5)/ln 2, minus the synonymous-codon median (not a log2 …
chain 1 D577T | -0.226 DMS score: mean over two replicates of log2(f_test/f_ref + 0.5)/ln 2, minus the synonymous-codon median (not a log2 …
chain 1 D577S | 0.3 DMS score: mean over two replicates of log2(f_test/f_ref + 0.5)/ln 2, minus the synonymous-codon median (not a log2 …
chain 1 E555V | -0.0654 DMS score: mean over two replicates of log2(f_test/f_ref + 0.5)/ln 2, minus the synonymous-codon median (not a log2 …
chain 1 E555A | 1.03 DMS score: mean over two replicates of log2(f_test/f_ref + 0.5)/ln 2, minus the synonymous-codon median (not a log2 …
chain 1 E555T | 0.557 DMS score: mean over two replicates of log2(f_test/f_ref + 0.5)/ln 2, minus the synonymous-codon median (not a log2 …
chain 1 E555Y | -0.189 DMS score: mean over two replicates of log2(f_test/f_ref + 0.5)/ln 2, minus the synonymous-codon median (not a log2 …
chain 1 E555K | 0.347 DMS score: mean over two replicates of log2(f_test/f_ref + 0.5)/ln 2, minus the synonymous-codon median (not a log2 …
chain 1 E555L | -0.165 DMS score: mean over two replicates of log2(f_test/f_ref + 0.5)/ln 2, minus the synonymous-codon median (not a log2 …
chain 1 E575D | -0.0843 DMS score: mean over two replicates of log2(f_test/f_ref + 0.5)/ln 2, minus the synonymous-codon median (not a log2 …
chain 1 E575H | 0.233 DMS score: mean over two replicates of log2(f_test/f_ref + 0.5)/ln 2, minus the synonymous-codon median (not a log2 …

Variant | screen value
chain 1 E575S | -0.146 DMS score: mean over two replicates of log2(f_test/f_ref + 0.5)/ln 2, minus the synonymous-codon median (not a log2 …
chain 1 E575K | 0.0377 DMS score: mean over two replicates of log2(f_test/f_ref + 0.5)/ln 2, minus the synonymous-codon median (not a log2 …
chain 1 G591F | 0.26 DMS score: mean over two replicates of log2(f_test/f_ref + 0.5)/ln 2, minus the synonymous-codon median (not a log2 …
chain 1 G591K | 0.45 DMS score: mean over two replicates of log2(f_test/f_ref + 0.5)/ln 2, minus the synonymous-codon median (not a log2 …
chain 1 D566E | -1.31 DMS score: mean over two replicates of log2(f_test/f_ref + 0.5)/ln 2, minus the synonymous-codon median (not a log2 …
chain 1 D566H | -2.26 DMS score: mean over two replicates of log2(f_test/f_ref + 0.5)/ln 2, minus the synonymous-codon median (not a log2 …
chain 1 D566Y | -2.1 DMS score: mean over two replicates of log2(f_test/f_ref + 0.5)/ln 2, minus the synonymous-codon median (not a log2 …
chain 1 I560F | -0.852 DMS score: mean over two replicates of log2(f_test/f_ref + 0.5)/ln 2, minus the synonymous-codon median (not a log2 …
chain 1 I560E | -0.924 DMS score: mean over two replicates of log2(f_test/f_ref + 0.5)/ln 2, minus the synonymous-codon median (not a log2 …
chain 1 F553M | 0.868 DMS score: mean over two replicates of log2(f_test/f_ref + 0.5)/ln 2, minus the synonymous-codon median (not a log2 …
chain 1 F553L | 0.618 DMS score: mean over two replicates of log2(f_test/f_ref + 0.5)/ln 2, minus the synonymous-codon median (not a log2 …
chain 1 E540Y | -2.86 DMS score: mean over two replicates of log2(f_test/f_ref + 0.5)/ln 2, minus the synonymous-codon median (not a log2 …
chain 1 E540T | -0.981 DMS score: mean over two replicates of log2(f_test/f_ref + 0.5)/ln 2, minus the synonymous-codon median (not a log2 …
chain 1 E540I | -2.91 DMS score: mean over two replicates of log2(f_test/f_ref + 0.5)/ln 2, minus the synonymous-codon median (not a log2 …
chain 1 E540S | -1.11 DMS score: mean over two replicates of log2(f_test/f_ref + 0.5)/ln 2, minus the synonymous-codon median (not a log2 …
chain 1 E540D | 0.44 DMS score: mean over two replicates of log2(f_test/f_ref + 0.5)/ln 2, minus the synonymous-codon median (not a log2 …
chain 1 E540N | -1.77 DMS score: mean over two replicates of log2(f_test/f_ref + 0.5)/ln 2, minus the synonymous-codon median (not a log2 …
chain 1 E573Q | -0.0881 DMS score: mean over two replicates of log2(f_test/f_ref + 0.5)/ln 2, minus the synonymous-codon median (not a log2 …
chain 1 E573T | 0.75 DMS score: mean over two replicates of log2(f_test/f_ref + 0.5)/ln 2, minus the synonymous-codon median (not a log2 …
chain 1 A545G | -0.421 DMS score: mean over two replicates of log2(f_test/f_ref + 0.5)/ln 2, minus the synonymous-codon median (not a log2 …

The next lines start with the values.

screen value | Variant
-0.956 DMS score: mean over two replicates of log2(f_test/f_ref + 0.5)/ln 2, minus the synonymous-codon median (not a log2 … | chain 1 N561H
0.755 DMS score: mean over two replicates of log2(f_test/f_ref + 0.5)/ln 2, minus the synonymous-codon median (not a log2 … | chain 1 N592P
-0.463 DMS score: mean over two replicates of log2(f_test/f_ref + 0.5)/ln 2, minus the synonymous-codon median (not a log2 … | chain 1 N592K
0.311 DMS score: mean over two replicates of log2(f_test/f_ref + 0.5)/ln 2, minus the synonymous-codon median (not a log2 … | chain 1 N592I
0.252 DMS score: mean over two replicates of log2(f_test/f_ref + 0.5)/ln 2, minus the synonymous-codon median (not a log2 … | chain 1 N592V
0.472 DMS score: mean over two replicates of log2(f_test/f_ref + 0.5)/ln 2, minus the synonymous-codon median (not a log2 … | chain 1 N592L
-0.58 DMS score: mean over two replicates of log2(f_test/f_ref + 0.5)/ln 2, minus the synonymous-codon median (not a log2 … | chain 1 S579M
-0.235 DMS score: mean over two replicates of log2(f_test/f_ref + 0.5)/ln 2, minus the synonymous-codon median (not a log2 … | chain 1 S579E
0.94 DMS score: mean over two replicates of log2(f_test/f_ref + 0.5)/ln 2, minus the synonymous-codon median (not a log2 … | chain 1 V554Q
0.246 DMS score: mean over two replicates of log2(f_test/f_ref + 0.5)/ln 2, minus the synonymous-codon median (not a log2 … | chain 1 V554G
1.47 DMS score: mean over two replicates of log2(f_test/f_ref + 0.5)/ln 2, minus the synonymous-codon median (not a log2 … | chain 1 Y587L
-1.01 DMS score: mean over two replicates of log2(f_test/f_ref + 0.5)/ln 2, minus the synonymous-codon median (not a log2 … | chain 1 Y587C
-2.96 DMS score: mean over two replicates of log2(f_test/f_ref + 0.5)/ln 2, minus the synonymous-codon median (not a log2 … | chain 1 Y587K
-2.4 DMS score: mean over two replicates of log2(f_test/f_ref + 0.5)/ln 2, minus the synonymous-codon median (not a log2 … | chain 1 Y587T
-0.989 DMS score: mean over two replicates of log2(f_test/f_ref + 0.5)/ln 2, minus the synonymous-codon median (not a log2 … | chain 1 L574I
-0.934 DMS score: mean over two replicates of log2(f_test/f_ref + 0.5)/ln 2, minus the synonymous-codon median (not a log2 … | chain 1 L574T
-0.496 DMS score: mean over two replicates of log2(f_test/f_ref + 0.5)/ln 2, minus the synonymous-codon median (not a log2 … | chain 1 L574C
-0.883 DMS score: mean over two replicates of log2(f_test/f_ref + 0.5)/ln 2, minus the synonymous-codon median (not a log2 … | chain 1 W536H

screen value | Variant
-0.841 DMS score: mean over two replicates of log2(f_test/f_ref + 0.5)/ln 2, minus the synonymous-codon median (not a log2 … | chain 1 W536E
-0.415 DMS score: mean over two replicates of log2(f_test/f_ref + 0.5)/ln 2, minus the synonymous-codon median (not a log2 … | chain 1 I560T
0.427 DMS score: mean over two replicates of log2(f_test/f_ref + 0.5)/ln 2, minus the synonymous-codon median (not a log2 … | chain 1 I560K
0.263 DMS score: mean over two replicates of log2(f_test/f_ref + 0.5)/ln 2, minus the synonymous-codon median (not a log2 … | chain 1 I560M
0.578 DMS score: mean over two replicates of log2(f_test/f_ref + 0.5)/ln 2, minus the synonymous-codon median (not a log2 … | chain 1 V565T
-0.567 DMS score: mean over two replicates of log2(f_test/f_ref + 0.5)/ln 2, minus the synonymous-codon median (not a log2 … | chain 1 V565A
-0.242 DMS score: mean over two replicates of log2(f_test/f_ref + 0.5)/ln 2, minus the synonymous-codon median (not a log2 … | chain 1 L590M
-0.52 DMS score: mean over two replicates of log2(f_test/f_ref + 0.5)/ln 2, minus the synonymous-codon median (not a log2 … | chain 1 L590V
0.43 DMS score: mean over two replicates of log2(f_test/f_ref + 0.5)/ln 2, minus the synonymous-codon median (not a log2 … | chain 1 L590I
-0.475 DMS score: mean over two replicates of log2(f_test/f_ref + 0.5)/ln 2, minus the synonymous-codon median (not a log2 … | chain 1 K576T
-0.373 DMS score: mean over two replicates of log2(f_test/f_ref + 0.5)/ln 2, minus the synonymous-codon median (not a log2 … | chain 1 K576A
-0.496 DMS score: mean over two replicates of log2(f_test/f_ref + 0.5)/ln 2, minus the synonymous-codon median (not a log2 … | chain 1 K576C
0.467 DMS score: mean over two replicates of log2(f_test/f_ref + 0.5)/ln 2, minus the synonymous-codon median (not a log2 … | chain 1 K576R
-0.425 DMS score: mean over two replicates of log2(f_test/f_ref + 0.5)/ln 2, minus the synonymous-codon median (not a log2 … | chain 1 L571S
-0.368 DMS score: mean over two replicates of log2(f_test/f_ref + 0.5)/ln 2, minus the synonymous-codon median (not a log2 … | chain 1 L571N
0.744 DMS score: mean over two replicates of log2(f_test/f_ref + 0.5)/ln 2, minus the synonymous-codon median (not a log2 … | chain 1 L571H
-0.705 DMS score: mean over two replicates of log2(f_test/f_ref + 0.5)/ln 2, minus the synonymous-codon median (not a log2 … | chain 1 L571I

From paper PMC7954794 (2021)
